Assay [1] concerns the target human insulin receptor isoform B (human) (UniProt P06213). Briefly: competitive displacement of 125I-human insulin, FLAG-tagged receptor captured on anti-FLAG plate. The settings on record: scale: % of the affinity of human insulin for IR-A. On the technique in general: Displacement assays read how much labelled ligand stays bound in the presence of the test substance.

The target is the same in assay [2]. In words: competitive displacement of 125I-insulin from receptor.

Sequence of His^A8, Asp^B10, Asp^B28, Pro^B29 insulin (two chain analogue) (ligand) (chain): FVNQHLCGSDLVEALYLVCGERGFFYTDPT
Sequence of His^A8, Asp^B10, Asp^B28, Pro^B29 insulin (two chain analogue) (ligand) (chain): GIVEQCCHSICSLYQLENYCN

In assay [1], “insulin-like growth factor II (from UniProt P01344 25-91) (ligand)” registered a relative affinity of 4.
Substance “Insulin-like Growth Factor 1 (from UniProt P05019 49-118) (ligand)” yielded a relative affinity in assay [1] of 0.7.
As for “His^A8, Asp^B10, Asp^B28, Pro^B29 insulin (two chain analogue) (ligand)”, in assay [2], the dissociation constant Kd (commonly a measure of binding affinity in units of concentration) came to 0.01 nM and the relative affinity (relative to human insulin) was 4.7.

For the origin of these results see US20110195896A1, “ISOFORM-SPECIFIC INSULIN ANALOGUES” (CASE WESTERN RESERVE UNIVERSITY, priority 2008, published 2011).
